According to patent US20050203025A1:
Values belong to the binder of their own block, whether it stands above or below them.

Assays:
[1] = molecular target: desmocollin (on Fsk-7.1 mouse mammary epithelial cells) (mouse); assay: cell-based or functional assay
[2] = molecular target: desmoglein (on Fsk-7.1 mouse mammary epithelial cells) (mouse); assay: cell-based or functional assay

% (single cells + clusters <4 cells); alveolar aggregate formation of Fsk-7.1 cells, 24 hr, no desmoglein peptide [1]: 18.2% | % (single cells + clusters <4 cells); alveolar aggregate formation of Fsk-7.1 cells, 24 hr, together with Ac-CRALC-NH2 [1]: 19.6% | % (single cells + clusters <4 cells); alveolar aggregate formation of Fsk-7.1 cells, 24 hr, together with H-…-OH [1]: 58.6%
B2: Ac-CYATC-NH2 (SEQ ID NO: 4683) (peptide)
peptide: Ac-CYATC-NH2
modifications: also: cyclic peptide, bond of cyclisation not given here

% (single cells + clusters <4 cells); alveolar aggregate formation of Fsk-7.1 cells, 24 hr, no desmocollin peptide [2]: 21.7% | % (single cells + clusters <4 cells); alveolar aggregate formation of Fsk-7.1 cells, 24 hr, together with Ac-CFATC-NH2 [2]: 39.5% | % (single cells + clusters <4 cells); alveolar aggregate formation of Fsk-7.1 cells, 24 hr, together with Ac-CYASC-NH2 [2]: 57.2% | % (single cells + clusters <4 cells); alveolar aggregate formation of Fsk-7.1 cells, 24 hr, together with Ac-CYATC-NH2 [2]: 58.6% | % (single cells + clusters <4 cells); alveolar aggregate formation of Fsk-7.1 cells, 24 hr, together with H-…-OH [2]: 36.5%
B4: H-…-OH (SEQ ID NO: 5283) (peptide)
peptide: H-LTGYALDSRG-OH

% (single cells + clusters <4 cells); alveolar aggregate formation of Fsk-7.1 cells, 24 hr, no desmoglein peptide [1]: 12.9% | % (single cells + clusters <4 cells); alveolar aggregate formation of Fsk-7.1 cells, 24 hr, together with Ac-CRALC-NH2 [1]: 37.2% | % (single cells + clusters <4 cells); alveolar aggregate formation of Fsk-7.1 cells, 24 hr, together with H-…-OH [1]: 57.2%
B5: Ac-CYASC-NH2 (SEQ ID NO: 5156) (peptide)
peptide: Ac-CYASC-NH2
modifications: also: cyclic peptide, bond of cyclisation not given here

The next lines start with the binder.

B1: Ac-CFATC-NH2 (SEQ ID NO: 5009) (peptide)
peptide: Ac-CFATC-NH2
modifications: also: cyclic peptide, bond of cyclisation not given here
% (single cells + clusters <4 cells); alveolar aggregate formation of Fsk-7.1 cells, 24 hr, no desmoglein peptide [1]: 13.1% | % (single cells + clusters <4 cells); alveolar aggregate formation of Fsk-7.1 cells, 24 hr, together with Ac-CRALC-NH2 [1]: 33.6% | % (single cells + clusters <4 cells); alveolar aggregate formation of Fsk-7.1 cells, 24 hr, together with H-…-OH [1]: 39.5%

B3: Ac-CRALC-NH2 (SEQ ID NO: 4236) (peptide)
peptide: Ac-CRALC-NH2
modifications: also: cyclic peptide, bond of cyclisation not given here
% (single cells + clusters <4 cells); alveolar aggregate formation of Fsk-7.1 cells, 24 hr, no desmocollin peptide [2]: 12.9% | % (single cells + clusters <4 cells); alveolar aggregate formation of Fsk-7.1 cells, 24 hr, together with Ac-CFATC-NH2 [2]: 33.6% | % (single cells + clusters <4 cells); alveolar aggregate formation of Fsk-7.1 cells, 24 hr, together with Ac-CYASC-NH2 [2]: 37.2% | % (single cells + clusters <4 cells); alveolar aggregate formation of Fsk-7.1 cells, 24 hr, together with Ac-CYATC-NH2 [2]: 19.6%

B6: H-…-OH (SEQ ID NO: 5284) (peptide)
peptide: H-LTAFATTPDG-OH
% (single cells + clusters <4 cells); alveolar aggregate formation of Fsk-7.1 cells, 24 hr, no desmoglein peptide [1]: 28% | % (single cells + clusters <4 cells); alveolar aggregate formation of Fsk-7.1 cells, 24 hr, together with H-…-OH [1]: 36.5%
